# Patent publication US20200256882A1, “FLUID PROPERTY MEASUREMENT DEVICES AND METHODS” (Abram Scientific, Inc., priority 2019, published 2020)
# B1: tPA: tissue plasminogen activator, enhances the external fibrinolysis process (protein, UniProt P00750 36-562, looked up)
# Tissue-type plasminogen …: SYQVICRDEKTQMIYQQHQSWLRPVLRSNRVEYCWCNSGRAQCHSVPVKSCSEPRCFNGGTCQQALYFSDFVCQCPEGFAGKCCEIDTRATCYEDQGISYRGTWSTAESGAECTNWNSSALAQKPYSGRRPDAIRLGLGNHNYCRNPDRDSKPWCYVFKAGKYSSEFCSTPACSEGNSDCYFGNGSAYRGTHSLTESGASCLPWNSMILIGKVYTAQNPSAQALGLGKHNYCRNPDGDAKPWCHVLKNRRLTWEYCDVPSCSTCGLRQYSQPQFRIKGGLFADIASHPWQAAIFAKHRRSPGERFLCGGILISSCWILSAAHCFQERFPPHHLTVILGRTYRVVPGEEEQKFEVEKYIVHKEFDDDTYDNDIALLQLKSDSSRCAQESSVVRTVCLPPADLQLPDWTECELSGYGKHEALSPFYSERLKEAHVRLYPSSRCTSQHLLNRTVTDNMLCAGDTRSGGPQANLHDACQGDSGGPLVCLNDGRMTLVGIISWGLGCGQKDVPGVYTKVTNYLDWIRDNMRP
# System: whole blood samples (extrinsic coagulation pathway)
# Test: Thromboelastogram (TEG) coagulation test on disposable test strip
# Format: biochemical
# Conditions: blood samples with increasing concentrations, 0 to 1.8 nM; FIG. 19(b)
# Description: The disposable test strips used in this example were incorporated with a reagent comprising of rabbit brain thromboplastin (Pacific Hemostasis Prothrombin Time reagent, Thromboplastin-DS, Product# 29-227-3), calcium chloride (25 mM) and Tween (2% v/v aqueous solution). Prior to the final assembly of the strip, the reagent was incorporated by dispensing the solution on to the exposed hydrophilic surface in the bottom stack, followed by air-drying in a drying box with humidity control at standard room temperature and pressure. The ratio of the volume of the reagent to blood tested in the chamber was maintained at close to 2:1 to ensure successful initiation of the blood coagulation reaction. […] Lastly, in some tests, blood samples were also tested using 2 Haemonetics' TEG-5000 instruments (2 tests per instrument) and their corresponding TEG curve & parameters were recorded, in order to perform side-by-side comparison with the results generated using the disposable test strips. Results: • In this example, the oscillation characteristics (amplitude and phase) of the in-plane vibration mode of a physical element in single-use disposable test strips were measured as a function of frequency in the vicinity of the resonance frequency, and these amplitude & phase frequency scans were monitored periodically to determine different aspects of the blood coagulation cascade. […]
molecule,measurement,value
B1,fibrinolysis rate Lys-Rate,increasing trend
